The target in one assay is OMP0 (E. coli) (UniProt P0A910). As to the kind of experiment: M2 anti-FLAG-AP 1:1000 and PNPP on OMP0 treated PLA disc.
For assay [1], the target named is Rabbit anti-mouse IgG-AP conjugate (Sigma Cat. No. A3688) (rabbit). Put plainly: control without mouse IgG: conjugate only (1/5000) on OMP18, hydrophilic plate.
For assay [2] the target is unchanged. As to the kind of experiment: control without mouse IgG: conjugate only (1/5000) on OMP18, hydrophobic plate.
Assay [3] concerns the target Mouse IgG (Sigma Cat No. 15381) (mouse). Put plainly: immunoassay, OMP18 adsorbed on hydrophilic plate, mouse IgG 2 ug/mL, anti-mouse IgG-AP and PNPP; well 1.
Assay [4] has the same target. As to the kind of experiment: immunoassay, OMP18 adsorbed on hydrophilic plate, mouse IgG 2 ug/mL, anti-mouse IgG-AP and PNPP; well 2.
The target is the same in assay [5]. As to the kind of experiment: immunoassay, OMP18 adsorbed on hydrophobic plate, mouse IgG 2 ug/mL, anti-mouse IgG-AP and PNPP; well 1.
The target is the same in assay [6]. Put plainly: immunoassay, OMP18 adsorbed on hydrophobic plate, mouse IgG 2 ug/mL, anti-mouse IgG-AP and PNPP; well 2.

Values joined by “and” are separate entries in the source; they are usually repeats but may differ in a detail not shown here. Equal values may be shown once.

In the case of “M2 anti-FLAG alkaline phosphatase conjugated antibody (Sigma Cat No. A9469)”, in the assay with OMP0 (E. coli), the Absorbance at 405 nm was 0.312 A405 and 0.361 A405 and 0.374 A405.
Consider “OMP18 (from UniProt P38507 212-269; P38507 212-269)”, for which the A405 in assay [1] turned out to be 0.027 A405; in assay [2] it was 0.056 A405; in assay [3], 2.24 A405; in assay [4] it was 2.23 A405; in assay [5], 2.39 A405; in assay [6] it was 2.33 A405.

The values above are taken from patent US10435480.
